According to the RNAGym collection of RNA variant scans (doi:10.1021/acssynbio.7b00057):

B1: Pistol ribozyme (parent)
chain: GGGUCGUUGUUCCAUAAUCGCGUGGAUAUGGCACGCAAGUUUCUACCGGGCACCGUAAAUGUCCGACUGGAGCCGUUCGGGCGGCUAUAAACAGACCUCAGGCCCGAAGCGUGGCGGCACCUGCCGCCGGUGGUAAAAAAGAUCGGAAGAGCACACGUCU

Variants of: B1
Assay: aptazyme ON/OFF ratio, guanine; higher = stronger switching; co-transcriptional cleavage with and without guanine

Point of comparison: U8G G9U U10G U11C C12U, “aptazyme ON/OFF ratio” value 1.04. Against it:
- U8C G9A U10G U11G C12A C13A — higher, 1.15
- U7G G9A U11A C12U C13G — higher, 1.17
- G9U U10C C13A — higher, 1.22
- U7C G9C U10G U11C — higher, 1.05
- U8A U10G U11A C12U C13A — higher, 1.42
- U7A U10C U11C C12U C13A — lower, 1.03
- U7C U8A G9C U10G U11A C12G C13A — higher, 1.1
- U8C G9U U11G — higher, 1.48
- U7C G9A C12G C13U — higher, 1.23
- U8A G9U U10G U11C C12A C13U — higher, 1.15
- U7C U8C G9U C12U C13U — higher, 1.3
- G9U U11C C13U — higher, 1.37
- U11G C12A C13U — higher, 1.24
- U7C U8G G9U C12G C13A — higher, 1.17
- U7C U8A G9C U10G U11A C12U — higher, 1.08
- U7G G9C U10A U11C C13U — higher, 1.14
- U7G U8C U10G C12U C13U — higher, 1.36
- U8A G9U U10G U11A C12U C13U — higher, 1.12
- U8G G9C U10C U11C C13A — higher, 1.06
- U7C U8G G9A U10C U11G C13G — higher, 1.12
- U7C G9C U10A U11C C13G — lower, 1.03
- U7C G9U U10G U11C — higher, 1.09
- U8A G9U U10C U11G — higher, 1.34
- U8A G9U U10C U11C — the same, 1.04
- U7C G9U U11C C12A C13A — higher, 1.15
- U8A G9U U11G C12A C13U — higher, 1.23
- U7G U8G G9C U10A U11G C12G C13U — higher, 1.06
- U7G U8C G9U U10C U11C C12A — higher, 1.42
- U8C G9U U10C U11C C12G — higher, 1.09
- U7A G9U U11C C12U — higher, 1.16
- U7A G9C U11A C13G — higher, 1.08
- U7C G9C U11C C12U C13G — lower, 1.03
- U7C G9C U11C C12U C13U — lower, 1.03
- U7A U8C G9U U11A C13G — higher, 1.07
- U7A U10A U11A C12U C13G — higher, 1.26
- U7A U8C G9U U10A U11C C12U C13G — higher, 1.12
- U7C U8A G9A U10G U11C C12U C13U — higher, 1.17
- U8G U10A C13G — higher, 1.12
- U7G G9U U10A U11A C12G C13A — higher, 1.13
- U7C G9A U10C C12U C13U — higher, 1.14
- G9C U11A C13A — higher, 1.19
- U8C G9U U10G U11C C12G — higher, 1.19
- U7C U8A C13A — higher, 1.31
- U7A U8G U10C U11C C12G C13U — higher, 1.19
- U8A U10G U11C C12U C13A — higher, 1.3
- G9C U11C C12A C13U — higher, 1.16
- U7C U8G G9A U10A U11C C12U — higher, 1.05
- U7G U8C G9C U10C U11G C13G — higher, 1.14
- U8C G9U U10C C12G C13U — higher, 1.24
- U7C G9U U10C C12G C13A — higher, 1.05
- U7C U8G G9U U11A C13U — higher, 1.28
- U7C U8G G9U U10C C13A — higher, 1.15
- U7G U8C U10A U11A C12A C13U — higher, 1.15
- U7A U8C G9U U10A U11G C12G C13G — higher, 1.26
- U7C G9U U10C U11G C12A C13A — higher, 1.11
- U8C G9C U10G U11G C13A — higher, 1.11
- U7C U8C U10A U11C C12G C13U — higher, 1.29
- U8C G9U U10G U11G C12A C13U — higher, 1.17
- U7C U8A G9A U11A C12A C13A — higher, 1.17
- U7A U8G G9A U10A U11C C12G — higher, 1.37
- U7G U8G U10G U11A C12U — higher, 1.36
- U7C G9C U10A U11G C12A C13A — higher, 1.15
- U7G U8C G9A U10C C13A — higher, 1.07
- U7G U8C G9C U11C C12G — higher, 1.34
- U7A U8G U10A U11G C12G C13G — higher, 1.43
- U7C U10C U11A — higher, 2.11
- U7C G9C U10A U11C C12A C13U — higher, 1.05
- C13A — higher, 1.36
- U7C U8G G9U U10G U11C C13A — higher, 1.17
- U7A G9C U10C U11G C12G C13A — higher, 1.07
- U7G U8G G9A U10G U11A C12G C13U — higher, 1.26
- U7C U8A G9U U10G U11G C12G C13U — higher, 1.14
- U8A G9U U10A U11A C12G C13U — higher, 1.38
- U7C U8A G9A U10C U11A C13A — higher, 1.2
- U11C C13G — higher, 1.07
- U7G U8A G9A U10C C12A — higher, 1.1
- U7C U8G U10A U11A C12U — higher, 1.57
- U8A G9A U10A U11A C12G C13U — higher, 1.16
- U7G U8C U10C U11A C12A C13A — higher, 1.26
- G9A U10A C12G C13A — higher, 1.47
- U7G G9C U10A U11A C12G C13A — higher, 1.14
- U8C G9A U10A U11A C13A — higher, 1.17
- U7A U8A G9U U11G C12A C13U — higher, 1.22
